According to article PMC9121386 (Journal of the American Chemical Society, 2022):

Tests used:
Test in all cases: cross-linking
[1] = biological target: uL2 (60S ribosomal subunit protein) (human (endogenous in H1299), UniProt P62917 1-257)
[2] = biological target: uL4 (60S ribosomal subunit protein) (human (endogenous in H1299), UniProt P36578 1-427)
[3] = biological target: eS25 (40S ribosomal subunit protein) (human (endogenous in H1299), UniProt P62851 1-125)
[4] = biological target: uL16 (60S ribosomal subunit protein) (human (endogenous in H1299), UniProt P27635 1-214)

binding result [1]: binds | binding result [2]: binds | binding result [3]: binds | binding result [4]: binds
B1: fragile histidine triad (Fhit), wild type (enzyme)
chain: not shown
